Data from patent publication US20100260765A1 (AstraZeneca / MedImmune, published 2010).
Positions count from the first letter of the chain named.

B1: 33B1 (antibody, V domains shown)
VH: EVQLVESGGGLVKPGGSLRLSCAASGFTFSSYTMNWVRQAPGKGLEWVSFIDSRSSYIYYADSVKGRFTISRDNAKNSLYLQMNSLRAEDTAVYYCSKDDWFEELWGQGTLVTVSS
VL: DIQMTQSPSSLSASVGDRVTITCRASQGIRNDLGWYQQKPGKAPKRLIYATSSLQSGVPSRFSGSGSGTEFTLTISSLQPEDFATYYCLHHNSFPWTFGQGTKVEIK
notes: Fully human monoclonal antibody from a XenoMouse hybridoma (IgG2 or IgG4 strain), purified
B2: 24B3 (antibody, V domains shown)
VH: B1 VH with S31T, T33S, D52S, S53G
VL: B1 VL with N31S, H90Q, S93R, F94Y
notes: as for B1
B3: 29D4 (antibody, V domains shown)
VH: QLQLQESGPGLVKPSETLSLTCTVSGGSISSRSNYWGWIRQPPGKGLEWIGTIYYSGHTYYNPSLKSRVSISVDTSKNQFSLKLSSVTATDTALYYCARQQLVLYYFEYWGQGTLVTVSS
VL: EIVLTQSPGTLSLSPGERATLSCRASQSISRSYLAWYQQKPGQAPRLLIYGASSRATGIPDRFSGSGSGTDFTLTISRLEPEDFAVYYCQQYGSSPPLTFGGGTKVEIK
notes: as for B1
B4: 32F4 (antibody, V domains shown)
VH: B3 VH with E16G, T21S, N34D, H58N, Y60F, S70T, N78K, T90A, L94V, E108D
VL: EIVLTQSPGTLSLSPGERATLSCRTSQSVSSSYLAWYQQKPGQAPRLLIYGASSRATGVPDRFSGSGSGTDFSLTISRLEPEDFAVYYCQQYGSSPPLTFGGGTKVEIK
notes: as for B1

Each binder was assayed against T1, soluble KDR Ig4-7 domain (human, UniProt P35968 328-764) (assay: ELISA, KDR Ig4-7 coat (1:1 diln.), antibody 1 ug/mL).
T1 construct: domain: Ig4-7 domain; also called b-KDRIg4-7-myc-his; Ig4-7 domain of KDR; not shown: myc-his tag of the pSecTag construct
Experimental: (§1) The cross-reactivity of purified antibodies was tested against KDR mouse ortholog KDR mouse ortholog (mouse VEGFR2, or Flk-1) and human VEGFR1 (Flt-1). The ability of the antibodies to bind soluble KDR Ig4-7 domain and to the entire KDR extracellular domain (ECD) was also measured.
(§2) Cross-reactivity experiments were carried out and measured using an ELISA based assay as described in Example 6. […] Antibody controls included IgG1 and IgG4 (Sigma-Aldrich, Cat. #15154 and #14639, respectively).

T1 sequence (P35968 328-764): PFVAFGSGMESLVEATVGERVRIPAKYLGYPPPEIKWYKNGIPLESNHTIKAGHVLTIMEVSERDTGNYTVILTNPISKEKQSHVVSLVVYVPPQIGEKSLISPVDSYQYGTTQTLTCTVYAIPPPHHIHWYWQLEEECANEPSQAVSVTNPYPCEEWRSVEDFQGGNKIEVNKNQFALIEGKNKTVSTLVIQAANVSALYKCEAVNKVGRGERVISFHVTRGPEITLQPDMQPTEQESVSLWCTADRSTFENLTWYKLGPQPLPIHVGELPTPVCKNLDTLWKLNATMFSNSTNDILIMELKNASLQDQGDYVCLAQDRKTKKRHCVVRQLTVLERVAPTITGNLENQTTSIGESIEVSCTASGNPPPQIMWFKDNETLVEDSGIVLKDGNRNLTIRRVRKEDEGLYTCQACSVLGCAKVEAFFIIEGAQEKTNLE

Row | ELISA reading | Binder
1 | 3.04 | B1
2 | 3.47 | B2
3 | 0.082 | B3
4 | 0.114 | B4

The binders below were run against T2, whole KDR-ECD (Cat. # 676490, Calbiochem) (human, UniProt P35968 20-764) (assay: ELISA, KDR-ECD coat 5 ug/mL, antibody 0.01 ug/mL).
T2 construct: extracellular domain; Bought soluble protein; also called soluble KDR; VEGF Receptor 2 D1-7
Experimental: as §1, §2

T2 sequence (P35968 20-764): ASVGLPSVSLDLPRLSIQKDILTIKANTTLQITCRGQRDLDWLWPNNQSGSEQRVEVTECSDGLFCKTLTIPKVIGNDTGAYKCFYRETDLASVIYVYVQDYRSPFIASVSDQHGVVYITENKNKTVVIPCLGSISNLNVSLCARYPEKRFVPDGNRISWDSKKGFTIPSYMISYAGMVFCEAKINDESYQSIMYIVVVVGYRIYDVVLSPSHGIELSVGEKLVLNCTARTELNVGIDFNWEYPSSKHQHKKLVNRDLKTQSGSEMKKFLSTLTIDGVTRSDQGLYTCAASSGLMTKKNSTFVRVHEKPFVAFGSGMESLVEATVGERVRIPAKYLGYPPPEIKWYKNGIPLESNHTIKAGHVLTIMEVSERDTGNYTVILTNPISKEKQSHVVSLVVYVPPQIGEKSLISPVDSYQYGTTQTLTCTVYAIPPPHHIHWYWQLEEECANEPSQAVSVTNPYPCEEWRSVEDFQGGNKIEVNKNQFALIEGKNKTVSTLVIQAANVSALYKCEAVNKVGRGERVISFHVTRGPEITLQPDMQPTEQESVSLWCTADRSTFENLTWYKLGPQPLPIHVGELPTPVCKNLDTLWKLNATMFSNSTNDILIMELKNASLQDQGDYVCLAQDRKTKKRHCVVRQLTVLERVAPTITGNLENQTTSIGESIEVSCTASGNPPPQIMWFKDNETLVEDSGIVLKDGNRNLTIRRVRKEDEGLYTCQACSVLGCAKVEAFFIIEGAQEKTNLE

Row | ELISA reading | Binder
5 | 0.072 | B1
6 | 0.09 | B2
7 | 0.089 | B3
8 | 0.09 | B4

These binders were tested against T1, soluble KDR Ig4-7 domain (assay: ELISA, KDR Ig4-7 coat (1:1 diln.), antibody 0.01 ug/mL).
Experimental: as §1, §2

Row | ELISA reading | Binder
9 | 0.609 | B1
10 | 1.45 | B2
11 | 0.08 | B3
12 | 0.076 | B4

What follows are binders tested against T3, cynomolgus KDR (cynomolgus monkey, UniProt A0A2K5VE63 20-1356) (assay: FACS on Cyno KDR/293T transfectants, antibody 5 ug/mL).
T3 construct: whole, on cells; also called Cyno KDR
Experimental: The binding of purified antibodies to cell-bound cynomolgus KDR (with parental cells as negative control) was tested by FACS analysis in this assay.
Cynomolgus KDR was cloned in 3 pieces. One piece was PCR amplified from cynomolgus lung cDNA, and the remaining two pieces were PCR amplified from cynomolgus kidney cDNA. The three PCR products were inserted into pCR3.1 Bid vector. […] Transfected cells were seeded at 50,000 cells/well and incubated with 5 μg/mL of candidate antibody for one hour at 4° C. The cells were then washed and incubated with secondary antibody (Cy5-conjugated goat anti-human antibody, or Cy5-conjugated rabbit anti-goat antibody, plus 7-Amino-Actinomycin (7AAD)) for 15 minutes at 4° C. Binding between cynomolgus KDR and purified antibody was detected by FACS analysis.

T3 sequence (A0A2K5VE63 entry or part of it): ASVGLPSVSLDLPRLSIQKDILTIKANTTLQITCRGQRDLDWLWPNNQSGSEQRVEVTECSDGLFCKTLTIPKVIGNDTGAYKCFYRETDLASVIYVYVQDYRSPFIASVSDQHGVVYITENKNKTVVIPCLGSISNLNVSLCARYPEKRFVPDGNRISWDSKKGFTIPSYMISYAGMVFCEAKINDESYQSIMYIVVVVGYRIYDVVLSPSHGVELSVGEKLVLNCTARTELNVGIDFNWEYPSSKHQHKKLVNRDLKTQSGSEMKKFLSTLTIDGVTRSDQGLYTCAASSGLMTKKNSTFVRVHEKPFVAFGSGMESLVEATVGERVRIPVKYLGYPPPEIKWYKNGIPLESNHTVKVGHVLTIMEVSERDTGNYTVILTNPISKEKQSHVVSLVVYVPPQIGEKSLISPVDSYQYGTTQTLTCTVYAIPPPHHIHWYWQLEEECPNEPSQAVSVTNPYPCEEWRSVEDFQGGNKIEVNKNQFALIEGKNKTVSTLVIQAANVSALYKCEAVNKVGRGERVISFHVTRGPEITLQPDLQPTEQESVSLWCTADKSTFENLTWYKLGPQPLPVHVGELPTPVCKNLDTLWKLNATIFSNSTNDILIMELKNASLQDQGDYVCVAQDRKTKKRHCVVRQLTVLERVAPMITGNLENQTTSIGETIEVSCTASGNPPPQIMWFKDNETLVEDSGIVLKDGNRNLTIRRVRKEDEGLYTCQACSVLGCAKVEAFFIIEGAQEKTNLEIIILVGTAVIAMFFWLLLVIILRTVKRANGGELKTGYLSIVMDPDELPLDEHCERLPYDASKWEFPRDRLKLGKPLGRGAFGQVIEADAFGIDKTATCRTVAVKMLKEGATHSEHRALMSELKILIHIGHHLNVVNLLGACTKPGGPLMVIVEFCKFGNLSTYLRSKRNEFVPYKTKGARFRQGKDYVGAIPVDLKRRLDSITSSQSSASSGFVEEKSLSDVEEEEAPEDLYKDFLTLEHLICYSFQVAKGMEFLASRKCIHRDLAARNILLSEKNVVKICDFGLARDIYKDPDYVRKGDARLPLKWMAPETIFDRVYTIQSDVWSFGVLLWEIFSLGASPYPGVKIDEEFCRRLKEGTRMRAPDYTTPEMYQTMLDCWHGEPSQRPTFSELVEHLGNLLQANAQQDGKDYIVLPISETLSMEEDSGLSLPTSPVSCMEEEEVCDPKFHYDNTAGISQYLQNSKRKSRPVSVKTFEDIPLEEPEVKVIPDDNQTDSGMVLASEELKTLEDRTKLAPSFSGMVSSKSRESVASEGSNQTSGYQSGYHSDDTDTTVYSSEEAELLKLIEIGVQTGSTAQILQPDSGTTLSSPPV

Row | FACS Geometric Mean Fluorescence | Binder
13 | 108 | B1
14 | 68.4 | B2
15 | 115 | B3
16 | 105 | B4

These binders were tested against T4, mouse KDR (Flk-1)/Fc (Cat. #443-KD/CF, R&D Systems, Inc.) (mouse, UniProt P35918 20-762) (assay: ELISA, Flk-1 coat 5 ug/mL, antibody 1 ug/mL).
T4 construct: Bought reagent; also called mouse VEGFR2; KDR mouse ortholog; not shown: Fc of the bought fusion protein
Experimental: as §1, §2

T4 sequence (P35918 20-762 limits assumed): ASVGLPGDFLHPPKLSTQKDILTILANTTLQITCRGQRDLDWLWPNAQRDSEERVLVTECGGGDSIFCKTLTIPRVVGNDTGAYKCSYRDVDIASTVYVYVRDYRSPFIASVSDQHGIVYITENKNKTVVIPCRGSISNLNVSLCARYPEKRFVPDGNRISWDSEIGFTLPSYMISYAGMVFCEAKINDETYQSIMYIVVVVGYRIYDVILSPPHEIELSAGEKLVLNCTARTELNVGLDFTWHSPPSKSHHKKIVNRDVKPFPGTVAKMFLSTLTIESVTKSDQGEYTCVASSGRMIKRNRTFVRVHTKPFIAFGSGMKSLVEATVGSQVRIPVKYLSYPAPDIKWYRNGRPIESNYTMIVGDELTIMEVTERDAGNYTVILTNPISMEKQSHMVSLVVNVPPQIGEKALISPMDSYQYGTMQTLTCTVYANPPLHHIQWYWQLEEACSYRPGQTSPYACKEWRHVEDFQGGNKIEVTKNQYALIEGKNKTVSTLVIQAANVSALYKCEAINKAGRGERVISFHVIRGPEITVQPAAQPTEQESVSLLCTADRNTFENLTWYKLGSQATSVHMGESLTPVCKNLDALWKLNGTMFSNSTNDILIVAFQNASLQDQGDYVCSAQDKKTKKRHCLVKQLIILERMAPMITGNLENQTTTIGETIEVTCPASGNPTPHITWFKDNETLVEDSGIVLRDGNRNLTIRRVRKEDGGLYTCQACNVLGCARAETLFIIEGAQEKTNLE

Row | ELISA reading | Binder
17 | 3.12 | B1
18 | 3.39 | B2
19 | 3.29 | B3
20 | 2.62 | B4

The binders below were run against T4, mouse KDR (Flk-1)/Fc (Cat. #443-KD/CF, …) (assay: ELISA, Flk-1 coat 5 ug/mL, antibody 0.01 ug/mL).
Experimental: as §1, §2

Row | ELISA reading | Binder
21 | 0.753 | B1
22 | 1.58 | B2
23 | 1.17 | B3
24 | 0.802 | B4

The binders below were run against T5, human KDR (human, UniProt P35968 20-1356) (assay: FACS competition on 293T/human KDR transfectants; antibody 5 ug/mL first, then competitor VEGF165 50 ng/mL; inhibition of VEGF binding).
T5 construct: whole, on cells; also called VEGFR2; endogenously-expressed KDR in HUVEC cells
Experimental: (§3) Transfected cells were then seeded at 50,000 cells/well and incubated with 5 μg/mL of candidate antibody for one hour at 4° C. […] After washing, the cells were incubated with Cy5-conjugated rabbit anti-goat antibody plus 7AAD for 15 minutes at 4° C.

T5 sequence (P35968 20-1356): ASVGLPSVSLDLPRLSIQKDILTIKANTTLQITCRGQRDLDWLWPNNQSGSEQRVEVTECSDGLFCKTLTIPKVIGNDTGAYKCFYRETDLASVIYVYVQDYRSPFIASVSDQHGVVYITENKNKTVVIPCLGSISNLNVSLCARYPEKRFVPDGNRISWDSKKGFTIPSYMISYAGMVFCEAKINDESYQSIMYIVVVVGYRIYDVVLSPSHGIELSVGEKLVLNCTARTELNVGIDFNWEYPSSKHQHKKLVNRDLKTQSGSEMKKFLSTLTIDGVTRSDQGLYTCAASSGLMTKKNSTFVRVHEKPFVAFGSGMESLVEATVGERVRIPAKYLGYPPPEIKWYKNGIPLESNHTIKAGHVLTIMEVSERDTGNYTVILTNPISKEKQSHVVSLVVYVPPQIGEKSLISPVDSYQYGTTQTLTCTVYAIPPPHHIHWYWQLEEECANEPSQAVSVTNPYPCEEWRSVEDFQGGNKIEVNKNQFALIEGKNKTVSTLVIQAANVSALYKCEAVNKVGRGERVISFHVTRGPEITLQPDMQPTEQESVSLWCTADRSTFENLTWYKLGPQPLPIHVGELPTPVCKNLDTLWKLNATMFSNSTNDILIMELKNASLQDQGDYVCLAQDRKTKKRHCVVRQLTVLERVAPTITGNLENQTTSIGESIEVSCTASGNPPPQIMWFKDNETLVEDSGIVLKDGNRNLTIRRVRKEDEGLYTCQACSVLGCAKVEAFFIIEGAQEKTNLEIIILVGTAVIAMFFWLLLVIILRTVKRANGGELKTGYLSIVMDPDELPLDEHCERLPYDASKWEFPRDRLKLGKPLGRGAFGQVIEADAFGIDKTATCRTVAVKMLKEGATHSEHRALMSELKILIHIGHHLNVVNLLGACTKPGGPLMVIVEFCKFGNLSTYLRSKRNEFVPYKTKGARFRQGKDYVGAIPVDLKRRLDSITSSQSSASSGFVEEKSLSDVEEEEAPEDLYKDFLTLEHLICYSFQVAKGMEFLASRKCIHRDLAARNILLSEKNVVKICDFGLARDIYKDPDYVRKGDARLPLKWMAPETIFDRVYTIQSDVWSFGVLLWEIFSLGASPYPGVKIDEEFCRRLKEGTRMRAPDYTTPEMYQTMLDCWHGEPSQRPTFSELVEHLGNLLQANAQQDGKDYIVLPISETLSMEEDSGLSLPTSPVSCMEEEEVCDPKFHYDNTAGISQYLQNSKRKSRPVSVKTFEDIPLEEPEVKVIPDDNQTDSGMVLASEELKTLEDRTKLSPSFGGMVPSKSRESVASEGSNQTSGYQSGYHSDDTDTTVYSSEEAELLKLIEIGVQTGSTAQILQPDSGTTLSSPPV

Row | % Inhibition | Binder
25 | 40% | B1
26 | 27% | B2
27 | 11% | B3
28 | 14% | B4

What follows are binders tested against T5, human KDR (assay: FACS titration of purified antibody on HUVEC cells (FACS Kd)).
Experimental: The binding affinities of the purified antibodies for endogenously-expressed KDR in HUVEC cells was measured. HUVEC cells were seeded at 150,000 cells/well and incubated with titrations of purified antibody for 4 hours at 4° C. The cells were then washed and incubated with goat anti-human IgG-Fc-Cy5+5 μg/mL 7-Amino-Actinomycin (7AAD) for 30 minutes at 4° C. Bound KDR was detected using FACS analysis.

Row | Kd | Binder
29 | 0.2 nM | B1
30 | 0.8 nM | B2
31 | 1 nM | B3
32 | 1.8 nM | B4

The binders below were run against T5, human KDR (assay: cell-based or functional assay).

Row | KDR tyrosine phosphorylation in HUVEC, EC50 (nM), Average | KDR tyrosine phosphorylation in HUVEC, EC50 (nM), N = 1 | KDR tyrosine phosphorylation in HUVEC, EC50 (nM), N = 2 | KDR tyrosine phosphorylation in HUVEC, Maximum Inhibition at 100 nM (% Inhibition), Average | KDR tyrosine phosphorylation in HUVEC, Maximum Inhibition at 100 nM (% Inhibition), N = 1 | KDR tyrosine phosphorylation in HUVEC, Maximum Inhibition at 100 nM (% Inhibition), N = 2 | Binder
33 | 1.1 nM | 1.2 nM | 1.1 nM | 86% | 86% | 86% | B1
34 | 2.2 nM | 2.1 nM | 2.3 nM | 81% | 78% | 84% | B2
35 | 1.9 nM | 2 nM | 1.9 nM | 75% | 74% | 77% | B3
36 | 1.8 nM | 1.7 nM | 1.9 nM | 75% | 71% | 79% | B4

Molecular target: T5, human KDR
Assay: cell-based or functional assay
Remark: another data set of the same source

Row | 6-keto Prostaglandin F1α release, EC50 (nM), Average | 6-keto Prostaglandin F1α release, EC50 (nM), N = 1 | 6-keto Prostaglandin F1α release, EC50 (nM), N = 2 | 6-keto Prostaglandin F1α release, Maximum Inhibition (% Inhibition), Average | 6-keto Prostaglandin F1α release, Maximum Inhibition (% Inhibition), N = 1 (200 nM) | 6-keto Prostaglandin F1α release, Maximum Inhibition (% Inhibition), N = 2 (333 nM) | Binder
37 | 3840 nM | 17 nM | 7670 nM | 53% | 31% | 76% | B1
38 | 12.1 nM | 8.1 nM | 16.2 nM | 54% | 37% | 72% | B2
39 | 3.2 nM | 3.2 nM | 3.2 nM | 56% | 45% | 67% | B3
40 | 4.5 nM | 4.4 nM | 4.6 nM | 48% | 42% | 54% | B4

Molecular target: T5, human KDR
Assay: cell-based or functional assay
Remark: another data set of the same source

Row | Binder | HUVEC survival, Maximum Inhibition at 50 nM (% Inhibition), Average | HUVEC survival, Maximum Inhibition at 50 nM (% Inhibition), N = 1 | HUVEC survival, Maximum Inhibition at 50 nM (% Inhibition), N = 2
41 | B1 | 57% | 55% | 59%
42 | B2 | 90% | 97% | 82%
43 | B3 | 92% | 89% | 95%
44 | B4 | 92% | 91% | 94%

What follows are binders tested against T2, whole KDR-ECD (Cat. # 676490, …) (assay: ELISA, KDR-ECD coat 5 ug/mL, antibody 0.1 ug/mL).
Experimental: as §1, §2

Row | ELISA reading | Binder
45 | 0.178 | B1
46 | 0.304 | B2
47 | 0.096 | B3
48 | 0.132 | B4

These binders were tested against T1, soluble KDR Ig4-7 domain (assay: ELISA, KDR Ig4-7 coat (1:1 diln.), antibody 0.1 ug/mL).
Experimental: as §1, §2

Row | ELISA reading | Binder
49 | 2.14 | B1
50 | 2.8 | B2
51 | 0.078 | B3
52 | 0.079 | B4

Each binder was assayed against T5, human KDR (assay: FACS competition on 293T/human KDR transfectants; antibody 5 ug/mL first, then competitor VEGF165 50 ng/mL; bound VEGF165 detected).
Experimental: as §3

Row | FACS Geometric Mean Fluorescence (bound VEGF165) | Binder
53 | 81 | B1
54 | 97 | B2
55 | 116 | B3
56 | 112 | B4

Each binder was assayed against T2, whole KDR-ECD (Cat. # 676490, …) (assay: ELISA, KDR-ECD coat 5 ug/mL, antibody 1 ug/mL).
Experimental: as §1, §2

Row | ELISA reading | Binder
57 | 1.99 | B1
58 | 3.02 | B2
59 | 2.15 | B3
60 | 1.93 | B4

What follows are binders tested against T4, mouse KDR (Flk-1)/Fc (Cat. #443-KD/CF, …) (assay: ELISA, Flk-1 coat 5 ug/mL, antibody 0.1 ug/mL).
Experimental: as §1, §2

Row | ELISA reading | Binder
61 | 2.1 | B1
62 | 2.75 | B2
63 | 2.59 | B3
64 | 2 | B4
